How the values were obtained:
[1] = target: Pfs25-IMX313-CTag (Plasmodium falciparum) (UniProt P13829); assay: SEC
[2] = target: Pfs25-IMX313-CTag (Plasmodium falciparum) (UniProt P13829); assay: non-reducing SDS-PAGE; Coomassie-stained gel, non-reduced against reduced sample
SpyCatcher-AP205 = assay: reducing SDS-PAGE of the covalent conjugate

Substance | stoichiometry N [1] | stoichiometry N [2] | percent coupling (coat protein molecules linked to Pfs25-SpyTag) (SpyCatcher-AP205) [%]
Pfs25-IMX313-CTag (from UniProt P13829 22-193) | 7 | 7 | 
Pfs25-SpyTag-CTag (from UniProt P13829 22-193) |  |  | 100
